Laboratory results taken from paper PMC8322834 (Biochemistry, 2020).
No end group written: not given here. AlexaFluor 488 = AlexaFluor 488 dye

Molecular target: DnaK (E. coli Hsp70 chaperone), ADP-state (E. coli, UniProt P0A6Y8 1-638)
Assay: fluorescence polarisation

Chain of DnaK (E. coli Hsp70 chaperone), ADP-state (P0A6Y8 whole entry): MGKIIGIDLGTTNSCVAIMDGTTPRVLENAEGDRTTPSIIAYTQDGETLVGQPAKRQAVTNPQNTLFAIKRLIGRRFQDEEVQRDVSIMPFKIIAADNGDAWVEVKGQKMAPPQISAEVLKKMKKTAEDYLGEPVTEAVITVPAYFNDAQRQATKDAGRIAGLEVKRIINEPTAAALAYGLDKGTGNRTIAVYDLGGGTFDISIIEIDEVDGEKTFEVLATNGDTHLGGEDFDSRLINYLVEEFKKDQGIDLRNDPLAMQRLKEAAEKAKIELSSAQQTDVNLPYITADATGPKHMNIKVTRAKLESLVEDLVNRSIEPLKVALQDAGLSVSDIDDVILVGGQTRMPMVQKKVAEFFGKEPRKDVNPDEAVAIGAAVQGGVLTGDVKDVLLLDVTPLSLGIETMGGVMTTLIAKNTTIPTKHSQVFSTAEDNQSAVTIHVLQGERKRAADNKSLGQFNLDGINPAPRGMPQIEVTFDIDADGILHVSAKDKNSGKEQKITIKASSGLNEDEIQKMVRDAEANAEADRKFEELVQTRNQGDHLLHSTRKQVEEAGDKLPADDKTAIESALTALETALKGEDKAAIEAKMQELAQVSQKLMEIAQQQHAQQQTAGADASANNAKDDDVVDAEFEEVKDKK

RRGKKLLLLLKKKGC(AlexaFluor 488) [KLR-70-C-AF488, AlexaFluor 488-conjugated KLR-70 peptide]
Kd: 1.73 µM
